This note sets out measurements from PMC5070868.

What all share (experiment): flow cytometry on cells; PBMCs of SLA class I haplotype-defined Microminipigs stained with X2F6 followed by anti-mouse IgG-FITC; lymphoid gate; also after TSST-1 or IFN-γ stimulation
Assay [1] deals with classical class I SLA on PBMCs of Hp-35.0 homozygous Microminipigs.
Assay [2] addresses classical class I SLA on PBMCs of Hp-10.0 homozygous Microminipigs.
Assay [3] deals with classical class I SLA on PBMCs of Hp-17.0 homozygous Microminipigs.

B1: X2F6 monoclonal antibody (antibody, V domains shown)
VH: QVQLQQSGAELVKPGASVKLSCKASGYTFTSYDINWVRQRPEQGLEWIGWIYPGDGSTKYNEKFKGKATLTTDKSSSTAYMQLSRLTSEDSAVYFCASPYYYGSSPFAYWGQGTLVTVSA
VL: DIQMTQSPASLSASVGETVTITCRASENIYSYLAWYQQKQGKSPQLLVYNAKTLAEGVPSRFSGSGSGTQFSLKINSLQPEDFGSYYCQHHYGTPRTFGGGTKLEIK
Turning to B1, the MFI came to 767 in assay [1], 1900 in assay [2] and 122 in assay [3].
